US20130101555A1 (CYTOMX THERAPEUTICS, published 2013)

Each binder was assayed against T1, human Notch1 EGF-like domains 11-13 fused to the Fc domain of human IgG1 (hN111-13-hFc) (human, UniProt P46531 411-526, biotinylated with NHS-PEG-biotin (hN111-13-hFc-biot) or labeled with DyLight-488, depending on the round) (assay: flow cytometry of induced E. coli clones, 100 nM hN111-13-hFc-biot then 10 nM SAPE, normalized to scaffold display level).
T1 construct: also called hN111-13-hFc-biot; hN111-13-hFc-Dy488; not shown: Fc domain of human IgG1 as encoded by pINFUSE-hIgG1-Fc2 (InvivoGen)
T1 sequence (P46531 411-526 limits assumed): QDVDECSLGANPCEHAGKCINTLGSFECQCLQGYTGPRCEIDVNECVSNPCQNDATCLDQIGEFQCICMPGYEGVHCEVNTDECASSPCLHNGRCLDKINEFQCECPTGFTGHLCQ
Experimental: Individual clones were tested by flow cytometry for hN1₁₁₋₁₃-hFc binding by labeling induced cells in TBS-Ca-B with (A.) 50 nM hN1₁₁₋₁₃-hFc-biot or (B.) 100 nM […] hN1₁₁₋₁₃-hFc-biot, followed by 10 nM Streptavidin-R-phycoerythrin (SAPE). Cells were separately labeled with 27 nM Ypet-Mona to measure peptide display level. The display scaffold alone (ecpX3) was used as a negative control.

Row | Binder | binding result
1 | RVTCDDYYYGFGCNKFGRPA (also called Jagged1-derived peptide; fragment of JAG1) [peptide derived from Jagged1 displayed by clone Jag-ecpX3] | binds

The binders below were run against T1, human Notch1 EGF-like domains 11-13 … (assay: bacterial display library screen, magnetic selection and FACS with labeled hN111-13-hFc).
Experimental: Following two rounds of magnetic selection, the remaining rounds of screening were performed on a Becton Dickinson FACSAria flow cytometer. In the first round of FACS, induced cells were incubated with 500 nM hN1₁₁₋₁₃-hFc-biot, 10 μM hIgG in TBS-Ca-B, washed, and incubated with fluorescent secondary label neutravidin-phycoerythrin (NAPE) (Invitrogen) at 10 nM, before sorting by flow cytometry for fluorescently labeled cells. Cells amplified from overnight growth of the first round FACS population were induced and subjected to a second round of sorting with the same labeling conditions as in the first round or, alternatively, using 50 nM hN1₁₁₋₁₃-hFc-biot. A third round of sorting was conducted as in the second round but with 100 nM hN1₁₁₋₁₃-hFc-biot and the addition of 27 nM Ypet-Mona-SH3 in the secondary labeling step. Mona-SH3 binds an epitope on the C-terminus of the display scaffold, independent of the random peptide on the N-terminus. Cells were then sorted based on the ratio of 576 nm fluorescence (i.e. NAPE binding) to 530 nm fluorescence (i.e. Ypet-Mona binding) in order to normalize for differences in scaffold display level on individual cells.
Alternatively, third round sorting was conducted by incubating induced cells with 10 nM or alternatively, 50 nM unbiotinylated hN1₁₁₋₁₃-hFc in TBS-Ca-B before washing, labeling with fluorescent secondary 20 μg/ml anti-hIgG-DyLight-488, and sorting based on 530 nm fluorescence. Third round sorting was also conducted using either 50 nM or 250 nM hN1₁₁₋₁₃-hFc that had been fluorescently labeled with DyLight-488 (Thermo Pierce) (hN1₁₁₋₁₃-hFc-Dy488), and 10 μM hIgG, with no secondary labeling.

Row | Binder | binding result
2 | EPKCSFCSPLIVPSP [PHB3479] | binds
3 | IYPLDALLRHLNSLC [PHB3349] | binds
4 | SAKHLHPGRLPPMTK [PHB3341] | binds
5 | FLNDIHRFLHWTDLM [PHB3325] | binds
6 | PNCIESFLSSIHDSL [PHB3480] | binds
7 | FPLNTFDLVHELLSR [PHB3324] | binds
8 | FCYIAAFSAMQRQSC [PHB3334] | binds
9 | ATCYIINHWVERYII [PHB3489] | binds
10 | ELTQLLNALVDVRNC [PHB3486] | binds
11 | DFINSMRSHLQSSDQ [PHB3478] | binds
12 | ATMYAYLERLEAILS [PHB3343] | binds
13 | PYTFVEQVEYWLHAT [PHB3327] | binds
14 | FINNVETALDTIYNL [PHB3340] | binds
15 | TDNALFLETVQHYLY [PHB3482] | binds
16 | CFPTVVWRELYNLYG [PHB3352] | binds
17 | ACVIHFLDRISNILE [PHB3333] | binds
18 | LLSSFVETMSSILTC [PHB3487] | binds
19 | TVLVIPDLHYLYVDR [PHB3337] | binds
20 | NLDFYLNHLYNTLAG [PHB3476] | binds
21 | CYPSISWLFADAPRN [PHB3485] | binds
22 | PLYLPEIGWMFGLPT [PHB3336] | binds
23 | YLLRLPSLEELWGPS [PHB3488] | binds
